Earlier results on one substance are cited in patent US20260265329A1, “POLYPEPTIDE AND DERIVATIVE THEREOF, COMPOSITION, AND USE THEREOF” (HANGZHOU SCIWIND BIOSCIENCES CO., LTD., priority 2023, published 2026).

No end group written: not given here.

For data set [1] the following is noted: in vivo, background statement; cited from earlier work.
The conditions of data set [2]: cited from earlier work.

Regarding “Amylin (KCNTATCATQRLANFLVHSSNNFGAILSSTNVGSNTY; not fully specified (C-terminus, bridges); cysteine pairing not given here; UniProt P10997 34-70, looked up) [polypeptide hormone consisting of 37 amino acids, member of the calcitonin protein family]”, the half-life result in data set [1] is reported as “short half-life in vivo”. The fibrillation result in data set [2] (background statement) is listed as “strong tendency towards fibrillation”. In data set [2] (pH 7, background statement), the chemical stability result is on record as “chemical instability at pH 7”.
